Source: paper PMC9319256, “Human Enzyme PADI4 Binds to the Nuclear Carrier Importin α3” (Cells, 2022)

Assays:
[1] = molecular target: ΔImpα3, truncated importin α3 lacking the importin β-binding (IBB) domain (human); assay: BLI; BLItz; His-tagged Impα3 or ΔImpα3 immobilised on His-tag biosensors at 0.3 µM; peptides 1-7 µM; manufacturer's buffer; 25 °C; pseudo-first-order plots; apparent
[2] = molecular target: human importin α3 (Impα3), intact (human); assay: as above
[3] = molecular target: ΔImpα3, truncated importin α3 lacking the importin β-binding (IBB) domain (human); assay: other fluorescence titration; peptide 0-20 µM added to 3 µM Impα3 or ΔImpα3; 20 mM Tris pH 7.5, 5 mM TCEP, 150 mM NaCl, 5% glycerol; 25 °C; fluorescence at 330 nm
[4] = molecular target: human importin α3 (Impα3), intact (human); assay: as above
[5] = molecular target: ΔImpα3, truncated importin α3 lacking the importin β-binding (IBB) domain (human); assay: ITC; PADI4 or peptide (100 µM) in the syringe titrated into importin (10 µM) in the cell; 20 mM Tris pH 7.5, 5 mM TCEP, 150 mM NaCl, 5% glycerol; 25 °C; single-site model
[6] = molecular target: human importin α3 (Impα3), intact (human); assay: as above

human importin α3 (Impα3), intact (human), sequence (O00629 whole entry, the tested form may be a part): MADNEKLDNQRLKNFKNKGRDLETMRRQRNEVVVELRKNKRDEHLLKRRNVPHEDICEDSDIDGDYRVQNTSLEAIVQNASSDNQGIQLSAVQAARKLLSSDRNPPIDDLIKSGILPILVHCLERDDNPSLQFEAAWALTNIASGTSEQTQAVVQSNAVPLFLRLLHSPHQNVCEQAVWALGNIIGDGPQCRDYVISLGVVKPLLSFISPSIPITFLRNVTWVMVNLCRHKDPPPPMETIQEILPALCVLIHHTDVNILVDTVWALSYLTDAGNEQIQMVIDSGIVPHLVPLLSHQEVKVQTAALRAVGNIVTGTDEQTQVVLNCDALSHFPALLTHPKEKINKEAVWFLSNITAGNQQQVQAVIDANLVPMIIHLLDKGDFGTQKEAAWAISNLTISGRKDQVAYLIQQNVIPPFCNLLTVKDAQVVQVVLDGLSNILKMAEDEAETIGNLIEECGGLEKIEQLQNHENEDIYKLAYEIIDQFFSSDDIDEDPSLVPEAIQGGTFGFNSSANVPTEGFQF

B1: NLS2-PADI4 peptide (peptide)
peptide: Ac-YKLFQEQQNEGHGEALLFEGIKKKKQQKI-NH2
Kd [1]: 12 µM
koff [1]: 0.23 s⁻¹
kon [1]: 20000 M⁻¹ s⁻¹
Kd [2]: 99 µM
koff [2]: 0.32 s⁻¹
kon [2]: 3000 M⁻¹ s⁻¹
Kd [3]: 4 µM
Kd [4]: 4 µM
Ka [5]: 230000 M⁻¹
Kd [5]: 4.3 µM
dH [5]: -11.2 kcal/mol
stoichiometry N [5]: 1.1
Ka [6]: 43000 M⁻¹
Kd [6]: 23 µM
dH [6]: -35.7 kcal/mol
stoichiometry N [6]: 1.08
